From the supplement of paper PMC7877785
± gives the uncertainty stated by the source.

Assay: self-splicing fitness, log relative to wild type (ln ratio); higher = more splicing; Tetrahymena group I intron in knt gene, E. coli kanamycin selection, DiMSum; sequences stand for … in CUCUCU…GGAGGGAAAAGUUAUCAGGCAUGCACCUGGUAGCUAGUCUUUAAACCAAUAGAUUGCAUCGGUUUAAAAGGCAAGACCGUCAAAUUGCGGGAAAGGGGUCAACAGCCGUUCAGUACCAAGUCUCAGGGGAAACUUUGAGAUGGCCUUGCAAAGGGUAUGGUAAUAAGCUGACGGACAUGGUCCUAACCACGCAGCCAAGUCCUAAGUCAACAGAUCUUCUGUUGAUAUGGAUGCAGUUCACAGACUAAAUGUCGGUCGGGGAAGAUGUAUUCUUCUCAUAAGAUAUAGUCGGACCUCUCCUUAAUGGGAGCUAGCGGAUGAAGUGAUGCAACACUGGAGCCGCUGGGAACUAAUUUGUAUGCGAAAGUAUAUUGAUUAGUUUUGGAGUACUCGUGGUCG
Method in brief: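 Six replicate transformations of E. coli BL21(DE3) with a pET-22b(+) library were grown overnight at 37°C or 30°C. The library randomised all eight P1ex-region intron nucleotides, the intron lying in the knt kanamycin-resistance gene, and plates were LB agar with or without 25 μg/mL kanamycin plus 100 μg/mL carbenicillin, 50 μM IPTG and 0.2% rhamnose. Pooled colonies were amplicon-sequenced on an Illumina HiSeq 2500, and fitness is the DiMSum error-weighted combination of wild-type-normalised replicate fold changes, kanamycin versus none.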

Sequence | self-splicing fitness (ln) (30 °C) | self-splicing fitness (ln) (37 °C)
UCUCAGCAAUAUUACGGUCG | -1.96 ± 0.15 | -0.825 ± 0.14
UCUCAGCAAUAUUACGGUGU | -2.03 ± 0.086 | -1 ± 0.097
UCUCAGCAAUAUUACGGUUG | -3.46 ± 0.17 | -2.41 ± 0.21
UCUCAGCAAUAUUACGUACC | -3.25 ± 0.46 | -1.69 ± 0.25
UCUCAGCAAUAUUACGUGCG | -3 ± 0.22 | -1.44 ± 0.18
UCUCAGCAAUAUUACGUGGG | -3.43 ± 0.25 | -2.48 ± 0.21
UCUCAGCAAUAUUACGUGUA | -1.47 ± 0.089 | -0.902 ± 0.08
UCUGAGCAAUAUUACGACUG | -3.15 ± 0.27 | -2.26 ± 0.28
UCUGAGCAAUAUUACGAGGC | -2.78 ± 0.35 | -2.39 ± 0.26
UCUGAGCAAUAUUACGAUCA | -3.84 ± 0.4 | -2.38 ± 0.36
UCUGAGCAAUAUUACGAUGA | -0.887 ± 0.12 | 0.0454 ± 0.18
UCUGAGCAAUAUUACGCAGG | -2.76 ± 0.32 | -1.29 ± 0.21
UCUGAGCAAUAUUACGCGAU | -3.14 ± 0.27 | -3.02 ± 0.25
UCUGAGCAAUAUUACGCUCA | -2.29 ± 0.24 | -2.09 ± 0.28
UCUGAGCAAUAUUACGCUUU | -3.64 ± 0.23 | -3.19 ± 0.19
UCUGAGCAAUAUUACGGAUA | -3.08 ± 0.47 | -1.57 ± 0.25
UCUGAGCAAUAUUACGGCAA | -2.44 ± 0.4 | -1.8 ± 0.35
UCUGAGCAAUAUUACGGCCU | -3.3 ± 0.29 | -1.6 ± 0.3
UCUGAGCAAUAUUACGGGAA |  | -1.82 ± 0.33
UCUGAGCAAUAUUACGUACU | -2.66 ± 0.34 | -2.72 ± 0.48

Sequence | self-splicing fitness (ln) (30 °C) | self-splicing fitness (ln) (37 °C)
UCUGAGCAAUAUUACGUCUU | -2.36 ± 0.21 | -2.9 ± 0.24
UCUUAGCAAUAUUACGAUAC |  | -3.06 ± 0.34
UCUUAGCAAUAUUACGAUUA | -2.37 ± 0.24 | -1.34 ± 0.2
UCUUAGCAAUAUUACGCCAU | -2.69 ± 0.3 | -2.26 ± 0.42
UCUUAGCAAUAUUACGCCCA |  | -0.128 ± 0.47
UCUUAGCAAUAUUACGCCUG | -2.25 ± 0.24 | -1.51 ± 0.27
UCUUAGCAAUAUUACGCGUG | -3.05 ± 0.18 | -2.21 ± 0.15
UCUUAGCAAUAUUACGCUCG | -0.481 ± 0.25 | -1.43 ± 0.44
UCUUAGCAAUAUUACGCUGG | -2.64 ± 0.24 | -1.64 ± 0.23
UCUUAGCAAUAUUACGGACG | -2.42 ± 0.3 | 
UCUUAGCAAUAUUACGGACU | -2.76 ± 0.34 | -0.0771 ± 0.26
UCUUAGCAAUAUUACGGCGU | -0.535 ± 0.15 | -1.19 ± 0.2
UCUUAGCAAUAUUACGGGCG | -1.5 ± 0.14 | -0.448 ± 0.17
UCUUAGCAAUAUUACGGGUU | -2.2 ± 0.15 | -1.61 ± 0.18
UCUUAGCAAUAUUACGUCUA | -3.59 ± 0.31 | -2.19 ± 0.2
UCUUAGCAAUAUUACGUGCA | -1.95 ± 0.12 | -1.07 ± 0.095
UCUUAGCAAUAUUACGUUGG | -2.76 ± 0.18 | -2.65 ± 0.19
UCUUAGCAAUAUUACGUUUC | -3.68 ± 0.24 | -2.8 ± 0.29
UGAAAGCAAUAUUACGAAGU | -3.76 ± 0.21 | -2.96 ± 0.23
